Laboratory results reported in patent US20260224446A1, “BIFUNCTIONAL PEPTIDES USEFUL FOR COLLAGEN INTRAFIBRILLAR MINERALIZATION” (University of Kansas, priority 2023, published 2026).
Where “and” joins values, the source holds several entries; their conditions need not be identical. Equal entries are not always repeated. No end group written: not given here.

How the values were obtained:
[1] = ALP-driven mineralization of adhesive/dentin specimen with HABP1, RAMAN imaging with Divisive Clustering Analysis; format: biochemical, human; conditions: for MNRp 960/1460: RAMAN peak ratio; for FMHW PO4^−3): RAMAN, after ALP-driven mineralization; for GMC 1078/960: carbonate to phosphate peak ratio; for Ca-P/collagen 960/1667: phosphate to amide I peak ratio
Method: (§1) ALP-driven mineralization was executed following the protocol discussed in Gungormus et al. (2008). The mineralization buffer prepared was composed of 24.4 Ca^2+ mM and 14.4 mM B-glycerophosphate made in 25 mM Tris-HCl buffer at pH 7.4, and 200 μL/well was added to a 24-well plate. Collagen-peptide samples were placed gently within the well to lay flat at the bottom. The mineralization reaction was initiated by adding FastAP (thermosensitive alkaline phosphatase), 1.4×10^−6 g/mL, and left to incubate at 37° C. for 20 min. The samples were then removed from the wells, gently rinsed in sterile-filtered water, and left to air dry overnight. Throughout this process the samples were handled in a horizontally flat manner to prevent disturbing the peptide-functionalized collagen layer on the surface of the substrate.
Demineralized dentin samples, adhesive/dentin samples (pre/post mineralization), and SC collagen on glass were imaged using a LabRAM ARAMIS Raman microscope (HORIBA Jobin Yvon, Edison, NJ, USA), equipped with a HeNe laser (2=[…], laser power=17 mW). Light micrograph images were taken using a 50× long working distance objective Olympus lens. The samples spectra were evaluated over a wavelength range of 300 cm^−1 to 1800 cm^−1 with a 15 s spectra acquisition time of 4 acquisitions per cycle and processed using LabSPEC 6 software (HORIBA Jobin Yvon, Edison, NJ, USA). Divisive Clustering Analysis (DCA) was used to classify and group respective spectra. This multivariate analysis method was integrated into the LabSPEC 6 analysis software as a Multivariate Analysis (MVA) module (powered by Eigenvector Research Inc., HORIBA Jobin Yvon, NJ, USA). A rectangular area of the surface was imaged and submitted to this multivariate analysis where a statistical pattern determined derived independent clusters to present chemically distinct regions. Average spectra are calculated per cluster which were used to provide information on particular peak parameters and component distribution in the resulting spectra. These components were analyzed for relative degree of mineralization via mineral-to-matrix ratio (MMR), inferred from the ratio of peak intensities at 960 cm^−1 (phosphate) and 1460 cm^−1 (CH2 bending), crystallinity via full width at half maximum (FWHM) from the v1 phosphate band (960 cm^−1), and the carbonate content of mineral crystallites via gradient in mineral content (GMC), based on ratio of relative carbonate (10^70 cm^−1) and phosphate (960 cm^−1) peak heights. The calcium-phosphate (Ca/P) to collagen ratio was also assessed to understand the relative thickness of the mineral formed during mineralization. This would help in comparative evaluations between the samples.
Next evaluated was the use of HABP1 to potentially direct mineralization within the adhesive/demineralized dentin hybrid layer. To do this RAMAN Divisive Clustering Analysis (DCA) was used, a hierarchical k-means clustering method which is useful for identifying the internal structure of multi-layer datasets. We mapped the most distinctive mineral composition variations associated with the collagen matrix structural variations according to their RAMAN spectra. […] The DCA method measures similarity in three parameters: ratio of 960/1460 peak (e.g., mineral-to-matrix ratio), ratio of 1078/960 (gradient mineral carbonation, GMC: carbonate to phosphate) peak, and ratio of the 960/1667 peaks (phosphate to collagen with retained amide I structure, Ca/P collagen). The spectral feature at 1460 cm^−1 is assigned to the CH2 wag for collagen, and 1667 cm^−1 is the amide I peak for the collagen used. The 960 cm^−1 peak is the v1 phosphate stretching vibration associated with the mineral and 10^78 cm^−1 is the band for v1 carbonate. The method clusters the following groups: collagen only, mineral group I, and mineral group II. […]

[2] = target: T1, Type 1 rat tail collagen (Rattus norvegicus, UniProt P02454+P02466); test: Collagen fibril self-assembly with incorporated peptide, AFM topography fibril widths; conditions: peptide co-assembled with collagen (50 nanomoles in 1 mL of 3 mg/mL), drop-cast on mica
T1 construct: Collagen Type 1 solution from rat tail (3 mg/mL, C3867, 95%) was purchased from Sigma-Aldrich; purchased Sigma-Aldrich C3867; host or cells: rat tail (tissue-derived)
Method: (§2) Grade V1 round mica, 0.21 mm thick and 12 mm in diameter, was used as the substrate surface and mounted onto a 12 mm atomic force microscopy specimen disc using STKYDOT adhesive. In 1 mL of 3 mg/mL Type 1 rat tail collagen suspension, 50 nanomoles of peptide were added. The ratio of mass collagen to mass peptide ranged from 100 wt collagen: 1 wt peptide for single domains to 100 wt collagen: 3 wt peptide for the chimeric peptide. Once peptide was dissolved and gently mixed in the collagen suspension, 150 μL was drop-cast onto the substrate surface and left to self-assemble at 4° C. for 16 h.
(§3) A Bruker Multimode 8 HR scanning probe microscope (Bruker Nano Inc., Camarillo, CA, USA) was operated in peak force tapping mode with the capability of Quantitative Nanomechanics (PeakForce-QNM) in air mode conditions (24±2° C., 40%±5% RH). This advanced testing mode was used to examine the topographical and nanomechanical property changes of the collagen-peptide samples both before and after mineralization. Tapping mode etched silicon probes, type RTESPA 525-30 (Bruker Nano Inc., Camarillo, CA, USA) with a resonant frequency of about 518 kHz, were used to acquire images (1 μm×3 μm and 5 μm×5 μm) at scan rate of 0.5 Hz with 512 pixel/line resolution. The images of the samples were recorded using NanoScope 8.15 software and analyzed using NanoScope Analysis 2.0 software (Bruker Nano Inc., Camarillo, CA, USA).
Building upon the conformational flexibility of the peptide, the CBP-HABP1 peptide was then studied for the assembly properties on the collagen fibrils on mica substrate using AFM topography image analysis. The images were acquired in tapping mode. Non-fibril features, indicated as intensity saturated regions on the surface, are acetic acid salt crystals from the evaporation of the solution in which the collagen was suspended. These features were excluded from image to prevent signal shadowing of the surface fibril assembly. […] Collagen+ (CBP-HABP1) fibrils were measured to be smaller than collagen-alone fibrils, resulting in a statistically significant difference. […]

[3] = target: T1, Type 1 rat tail collagen; test: SEM/EDS of Ca-P deposits on peptide-incorporated collagen after ALP-driven mineralization; format: biochemical; conditions: for average Ca—P ratio: EDS, initial mineral on peptide-incorporated collagen after 20 min ALP-driven mineralization; for mineral formation morphology on SEM images: peptide-incorporated collagen after ALP-driven mineralization
Method: as §2, §1
In order to examine initial intrafibrillar mineral formation and morphology and determine Ca/P ratios precipitated on the peptide-functionalized collagen surface, a Cold Field Emission Scanning […] Microscope (SEM, S-4700 model, Hitachi High-Tech America, Schaumburg, IL, USA) equipped with a silicon drift energy-dispersive detector (EDS, X-max, Oxford Instruments, Concord, MA, USA) was used via the Microscopy and Analytical Imaging Research Resource Core Laboratory (RRID:SCR_021801). Collagen-peptide samples were sputter-coated with 3 nm gold using a Quorum sputter coating system (Q150, Quorum, Laughton, East Sussex, UK). SEM imaging was completed at an acceleration voltage of 10 kV at ultra-high resolution operating mode and EDS measurements were made at 10 kV under normal operating mode to preserve the integrity of the collagen-peptide layer and prevent burning during signal capture. EDS analysis was performed through AZtec software (X-MaxN, Oxford Instruments, Concord, MA, USA).
The composition and morphology of the Ca—P deposits formed on collagen samples were examined using scanning electron microscopy (SEM) with energy dispersive X-ray analysis (EDS). […] The EDS results validated the finding of Ca—P mineral isomorphs on the peptide-incorporated collagen platforms. The calcium/phosphate ratios were calculated to examine compositional differences. […] Whereas collagen+ (CBP) and collagen+ (CBP-HABP1) had comparatively lower average Ca—P ratios at 1.30 and 1.25, respectively. These values are similar to the molar ratio of octacalcium phosphate, which is around 1.33, and amorphous calcium phosphate (ACP), which is roughly 1.50 [54-57].

[4] = target: T1, Type 1 rat tail collagen; test: PeakForce-QNM AFM modulus mapping of peptide-functionalized collagen pre/post ALP-driven mineralization; conditions: peptide incorporated into collagen
Method: as §2, §1, §3
Building on the observed effects of the chimeric peptide on the collagen, next examined was if there was a change on the mechanical properties of the collagen due to the peptide presence. Quantitative modulus mapping was executed via PeakForce-QNM AFM to observe the changes in the elastic modulus distribution on the surfaces. The elastic modulus was previously established to be derived by using the Derjaguin-Muller-Toropov (DMT) model, and is thus reported as the DMT modulus. […]

[5] = target: T1, Type 1 rat tail collagen; test: MicroXCT imaging of mineral formed within peptide-incorporated collagen after ALP-driven mineralization; format: biochemical; conditions: MicroXCT shaded surface display, 20-min ALP-driven mineralization
Method: as §2
ALP-driven mineralization was executed following the protocol discussed in Gungormus et al. (2008). The mineralization buffer prepared was composed of 24.4 Ca^2+ mM and 14.4 mM B-glycerophosphate made in 25 mM Tris-HCl buffer at pH 7.4, and 200 μL/well was added to a 24-well plate. […]
The microscale structure of the mineral formed within the peptide-incorporated collagen platform as a physical indicator of intrafibrillar mineralization, was observed using 3D X-ray microcomputed tomography (MicroXCT-400, Xradia Inc., Pleasanton, CA, USA). […] The 3D images were reconstructed using the XM Reconstructor 8.0 software and were analyzed from an orthogonal view using a TXM 3D Viewer under the […] surface display (SSD) mode (Xradia Inc., Pleasanton, CA, USA). […]

[6] = target: Collagen Type 1 solution from rat tail (3 mg/mL, C3867, Sigma-Aldrich) (rat, UniProt P02454 152-1207; P02466 86-1125); test: cell-based or functional assay
[7] = after 20 min ALP-driven mineralization

T1 sequence (P02466 86-1125 limits assumed): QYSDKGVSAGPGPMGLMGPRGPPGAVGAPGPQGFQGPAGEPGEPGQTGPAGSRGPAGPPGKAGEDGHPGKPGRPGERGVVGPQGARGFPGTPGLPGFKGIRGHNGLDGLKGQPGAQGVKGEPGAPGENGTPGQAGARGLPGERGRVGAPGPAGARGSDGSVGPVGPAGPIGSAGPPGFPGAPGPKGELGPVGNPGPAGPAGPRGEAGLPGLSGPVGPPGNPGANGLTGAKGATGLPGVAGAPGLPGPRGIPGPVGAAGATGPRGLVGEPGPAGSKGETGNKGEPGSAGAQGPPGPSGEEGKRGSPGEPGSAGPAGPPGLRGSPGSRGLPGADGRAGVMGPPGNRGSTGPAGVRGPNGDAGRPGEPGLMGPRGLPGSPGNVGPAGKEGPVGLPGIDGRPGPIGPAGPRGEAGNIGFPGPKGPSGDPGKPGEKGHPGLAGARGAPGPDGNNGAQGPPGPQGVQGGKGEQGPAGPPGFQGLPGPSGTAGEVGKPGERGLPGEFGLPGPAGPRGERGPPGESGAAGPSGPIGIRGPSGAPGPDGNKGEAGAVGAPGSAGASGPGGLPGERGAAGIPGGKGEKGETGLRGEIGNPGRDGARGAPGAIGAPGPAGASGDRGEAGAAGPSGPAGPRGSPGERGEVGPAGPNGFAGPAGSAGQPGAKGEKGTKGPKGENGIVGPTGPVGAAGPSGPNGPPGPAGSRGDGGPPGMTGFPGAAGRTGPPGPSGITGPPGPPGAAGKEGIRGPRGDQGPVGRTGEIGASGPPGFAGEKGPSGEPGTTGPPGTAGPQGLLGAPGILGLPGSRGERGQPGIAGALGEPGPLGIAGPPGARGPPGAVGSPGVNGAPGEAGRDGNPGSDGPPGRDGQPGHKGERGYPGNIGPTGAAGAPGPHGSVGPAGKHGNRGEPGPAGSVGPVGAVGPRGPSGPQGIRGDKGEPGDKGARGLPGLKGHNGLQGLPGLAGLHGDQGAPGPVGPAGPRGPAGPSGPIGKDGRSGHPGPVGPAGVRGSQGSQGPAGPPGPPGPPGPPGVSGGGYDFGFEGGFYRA
T1 sequence (P02454 152-1207 limits assumed): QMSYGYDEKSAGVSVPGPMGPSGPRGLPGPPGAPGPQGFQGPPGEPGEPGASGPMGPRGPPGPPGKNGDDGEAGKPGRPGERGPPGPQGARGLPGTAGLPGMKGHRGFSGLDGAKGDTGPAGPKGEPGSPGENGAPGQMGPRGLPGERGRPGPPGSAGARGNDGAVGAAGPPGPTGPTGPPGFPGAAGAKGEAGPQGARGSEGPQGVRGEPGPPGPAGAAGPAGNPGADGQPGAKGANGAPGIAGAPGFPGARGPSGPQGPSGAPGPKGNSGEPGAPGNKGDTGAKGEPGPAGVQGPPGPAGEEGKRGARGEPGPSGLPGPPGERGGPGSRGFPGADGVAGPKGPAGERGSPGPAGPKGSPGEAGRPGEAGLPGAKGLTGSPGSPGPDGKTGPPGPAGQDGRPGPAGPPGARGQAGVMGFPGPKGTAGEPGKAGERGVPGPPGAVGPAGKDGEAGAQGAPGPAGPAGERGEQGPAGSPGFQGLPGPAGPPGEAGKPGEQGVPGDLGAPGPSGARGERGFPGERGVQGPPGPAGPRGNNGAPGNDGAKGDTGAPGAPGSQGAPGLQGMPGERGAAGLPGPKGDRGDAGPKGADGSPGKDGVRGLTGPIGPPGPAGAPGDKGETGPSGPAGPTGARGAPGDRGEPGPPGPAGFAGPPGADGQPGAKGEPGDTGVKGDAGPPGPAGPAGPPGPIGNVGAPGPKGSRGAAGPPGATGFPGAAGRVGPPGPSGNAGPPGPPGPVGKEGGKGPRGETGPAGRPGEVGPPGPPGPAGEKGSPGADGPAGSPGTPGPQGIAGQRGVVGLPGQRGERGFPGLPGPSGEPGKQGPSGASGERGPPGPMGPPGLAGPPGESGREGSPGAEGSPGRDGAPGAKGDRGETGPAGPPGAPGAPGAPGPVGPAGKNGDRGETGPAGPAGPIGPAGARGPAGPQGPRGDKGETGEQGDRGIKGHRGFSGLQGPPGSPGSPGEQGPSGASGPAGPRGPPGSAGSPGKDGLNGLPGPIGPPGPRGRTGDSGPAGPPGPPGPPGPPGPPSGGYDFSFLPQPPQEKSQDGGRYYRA
Sequence of Collagen Type 1 solution from rat tail (3 mg/mL, C3867, Sigma-Aldrich) (P02454 152-1207 limits assumed, chain 1 of 2): as the sequence (P02454 152-1207 limits assumed) above
Sequence of Collagen Type 1 solution from rat tail (3 mg/mL, C3867, Sigma-Aldrich) (P02466 86-1125 limits assumed, chain 2 of 2): as the sequence (P02466 86-1125 limits assumed) above

Molecule | Mean fibril width [2] | average Ca—P ratio [3] | DMT (elastic) modulus [4, 7] | DMT (elastic) modulus ([4]; pre-mineralization) | fibril width, Coefficient of variation, AFM topographical imaging [6] | fibril width, Standard Deviation, AFM topographical imaging [6] | mineral formation morphology on SEM images [3] | other results
MLPHHGA [HABP1] | 129.9 nm and 129.90 nm | 1.41 | – | – | – | – | more extensively branched columnar mineral growth as well as plate-like mineral growth | MNRp 960/1460 ([1]; DCA class HABP1 Mineral II): 3.59; FMHW PO4^−3) ([1]; DCA class HABP1 Mineral II): 35.6; GMC 1078/960 ([1]; DCA class HABP1 Mineral II): 0.22; Ca-P/collagen 960/1667 ([1]; DCA class HABP1 Mineral II): 13.2; MNRp 960/1460 ([1]; DCA class HABP1 mineral I): 2.88; FMHW PO4^−3) ([1]; DCA class HABP1 mineral I): 39.6; GMC 1078/960 ([1]; DCA class HABP1 mineral I): 0.31; Ca-P/collagen 960/1667 ([1]; DCA class HABP1 mineral I): 23.9; mineralization shown with a RAMAN peak consistent with CaPO4 formation (960 cm^−1) ([1]; adhesive/dentin specimen, compared with mineralization procedure without peptide): mediates mineralization
TKKLTLRT [CBP] | 121.4 nm and 121.40 nm | 1.30 | 6.52 GPa | 5.16 GPa | – | – | branched columnar mineral growth | –
TKKLTLRTAPAMLPHHGA [CBP-HABP1] | 82.37 nm | 1.25 | 5.83 GPa | 5.25 GPa | – | – | more extensively branched columnar mineral growth as well as plate-like mineral growth | void areas in collagen interior [5]: almost no void areas; density of mineralized collagen layer ([5]; versus collagen control): denser formation compared to ALP-based mineralized collagen samples

More lines, main results first:

Mean fibril width [2] | average Ca—P ratio [3] | DMT (elastic) modulus [4, 7] | DMT (elastic) modulus ([4]; pre-mineralization) | fibril width, Coefficient of variation, AFM topographical imaging [6] | fibril width, Standard Deviation, AFM topographical imaging [6] | Molecule | mineral formation morphology on SEM images [3] | other results
– | – | – | – | 32.1 | 26.5 nm | TKKLTLRTAPAMLPHHGA [bifunctional peptide TKKLTLRT-APA-MLPHHGA (CBP-HABP1)] | – | –
– | – | – | – | 67.5 | 87.6 nm | MLPHHGA-OH [hydroxyapatite-binding peptide (HABP1), MLPHHGA] | – | –
– | – | – | – | 17 | 20.7 nm | TKKLTLRT-OH [collagenase-collagen-binding peptide (CBP), TKKLTLRT] | – | –
